We go through 1 molecule from PMC11761706.

In the data set the target is T1, Loz1AZZ (Schizosaccharomyces pombe, UniProt Q9UTA1 426-522).
T1 sequence: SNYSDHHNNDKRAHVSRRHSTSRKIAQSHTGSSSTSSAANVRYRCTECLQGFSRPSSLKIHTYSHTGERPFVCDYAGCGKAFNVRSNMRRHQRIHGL
Nature of the data set: NMR.

B1: LRE DNA 14 bp (dsDNA)
DNA 1: GCGACGATCATTGG
DNA 2: CCAATGATCGTCGC
On to B1, for which the binding result is “binds”.
